{"source": "paper PMC7806720", "about": "“Restoration of the reduced CLSP activity alleviates memory impairment in Alzheimer disease” (Translational Psychiatry, 2021)", "key": {"recombinant adiponectin": {"molecular_target": "T1, recombinant adiponectin (UniProt Q15848 19-244)", "T1 construct": "adiponectin; also called ADN; source: recombinant", "T1 sequence (looked up)": "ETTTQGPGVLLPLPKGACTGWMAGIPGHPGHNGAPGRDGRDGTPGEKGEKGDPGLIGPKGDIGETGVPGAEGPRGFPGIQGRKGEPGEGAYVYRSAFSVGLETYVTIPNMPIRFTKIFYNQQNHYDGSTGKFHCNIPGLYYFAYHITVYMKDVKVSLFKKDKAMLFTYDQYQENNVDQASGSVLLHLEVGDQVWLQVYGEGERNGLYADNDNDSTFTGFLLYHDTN", "assay": "plate binding assay with HiBiT luminescence (Nano-Glo HiBiT Extracellular Detection System); ApoE4 or adiponectin coated on 96-well plates (20 pM in 50 mM carbonate buffer pH 9.6, overnight 4 °C), blocked with 1% skim milk in PBS; CLSP-HiBiT in PBS added, overnight 4 °C; washed with PBS with 0.1% NP-40; in duplicate", "details": "both partners purified"}, "[1]": {"molecular_target": "recombinant apolipoprotein E4 (UniProt P02649)", "assay": "plate binding assay with HiBiT luminescence (Nano-Glo HiBiT Extracellular Detection System); ApoE4 or adiponectin coated on 96-well plates (20 pM in 50 mM carbonate buffer pH 9.6, overnight 4 °C), blocked with 1% skim milk in PBS; CLSP-HiBiT in PBS added, overnight 4 °C; washed with PBS with 0.1% NP-40; in duplicate"}}}
{"binder": "CLSP-HiBiT (natural protein, human, UniProt Q9NZT1 1-146, looked up, calmodulin-like skin protein (CLSP); also called recombinant CLSP-HiBiT; source: recombinant) MAGELTPEEEAQYKKAFSAVDTDGNGTINAQELGAALKATGKNLSEAQLRKLISEVDSDGDGEISFQEFLTAAKKARAGLEDLQVAFRAFDQDGDGHITVDELRRAMAGLGQPLPQEELDAMIREADVDQDGRVNYEEFARMLAQE", "values": [{"measurement": "Kd", "setting": "recombinant adiponectin", "value": 7.8, "unit": "pM"}, {"measurement": "Kd", "setting": "[1]", "value": 8.8, "unit": "pM"}]}
